Experimental data published in article PMC8292379.

Biological target: Human mitochondrial chaperonin mHsp60 (human), P10809
Experiment: cryo-EM structure; ~9 mg/ml mHsp60 on Quantifoil holey carbon grids, Titan Krios 300 kV, C7 symmetry imposed, combined map at 3.4 Å; 2D class averages show seven-fold symmetry
Settings: remark: other sources report otherwise

stoichiometry N: 7
B1: Human mitochondrial chaperonin mHsp60, P10809 27-573 (natural protein)
chain: AKDVKFGADARALMLQGVDLLADAVAVTMGPKGRTVIIEQSWGSPKVTKDGVTVAKSIDLKDKYKNIGAKLVQDVANNTNEEAGDGTTTATVLARSIAKEGFEKISKGANPVEIRRGVMLAVDAVIAELKKQSKPVTTPEEIAQVATISANGDKEIGNIISDAMKKVGRKGVITVKDGKTLNDELEIIEGMKFDRGYISPYFINTSKGQKCEFQDAYVLLSEKKISSIQSIVPALEIANAHRKPLVIIAEDVDGEALSTLVLNRLKVGLQVVAVKAPGFGDNRKNQLKDMAIATGGAVFGEEGLTLNLEDVQPHDLGKVGEVIVTKDDAMLLKGKGDKAQIEKRIQEIIEQLDVTTSEYEKEKLNERLAKLSDGVAVLKVGGTSDVEVNEKKDRVTDALNATRAAVEEGIVLGGGCALLRCIPALDSLTPANEDQKIGIEIIKRTLKIPAMTIAKNAGVEGSLIVEKIMQSSSEVGYDAMAGDFVNMVEKGIIDPTKVVRTALLDAAGVASLLTTAEVVVTEIPKEEKDPGMGAMGGMGGGMGGGMF
